The source of these data is the supplement of paper PMC9112550, “Optimization of the antimicrobial peptide Bac7 by deep mutational scanning” (BMC Biology, 2022).
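Further: peptides expressed intracellularly from a pBAD plasmid library in pooled LB shake-flask culture, induced with 0.3% L-arabinose, DNA abundance read by NGS, three biological replicates, DESeq2 with apeglm shrinkage.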

In the data set the test system is Escherichia coli TOP10. Description: shrunken log2 fold change of peptide-encoding DNA abundance (4.5 h post-induction vs induction); higher = less antimicrobial activity (less host growth inhibition). To be noted: time post-induction: 4.5 h; library: site-saturation at positions 5, 18, 19, 20.
For the sequence RRIRFRPPRLPRPRPRPNVHPRP, the “shrunken log2 fold change” value is -0.339. For RRIRIRPPRLPRPRPRPLMYPRP the value was -0.513; for RRIRQRPPRLPRPRPRPHCTPRP, 0.157; for RRIRIRPPRLPRPRPRPPHIPRP, -0.542. Next, RRIRSRPPRLPRPRPRPARDPRP: 0.407. Consider RRIRCRPPRLPRPRPRPCYHPRP, for which the “shrunken log2 fold change” value was -0.79. For RRIRMRPPRLPRPRPRPSQCPRP the value was -0.112; for RRIRLRPPRLPRPRPRPDKFPRP, -0.26.

With RRIRMRPPRLPRPRPRPYKPPRP, the “shrunken log2 fold change” value was found to be 0.0559. Take RRIRNRPPRLPRPRPRPYYNPRP: the “shrunken log2 fold change” value was -1.49. Next, RRIRGRPPRLPRPRPRPYISPRP: -0.325; RRIRGRPPRLPRPRPRPWYYPRP: -0.148; RRIRFRPPRLPRPRPRPFQLPRP: -0.0751. For RRIRNRPPRLPRPRPRPRGQPRP the value was 0.114; for RRIRCRPPRLPRPRPRPIFHPRP, -0.333.

Take RRIRRRPPRLPRPRPRPTYYPRP: the “shrunken log2 fold change” value is -0.0395. With RRIRPRPPRLPRPRPRPDLNPRP, the “shrunken log2 fold change” value came to 0.168.

Regarding RRIRLRPPRLPRPRPRPLWGPRP, the “shrunken log2 fold change” value stood at 0.151. As for RRIRPRPPRLPRPRPRPSFRPRP, the “shrunken log2 fold change” value is -0.142. As to RRIRQRPPRLPRPRPRPLSGPRP, the “shrunken log2 fold change” value is -0.252. As to RRIRGRPPRLPRPRPRPQKWPRP, the “shrunken log2 fold change” value stood at 0.0681.

RRIRCRPPRLPRPRPRPPTPPRP: the “shrunken log2 fold change” value is 0.776. Turning to RRIRKRPPRLPRPRPRPAGPPRP, the “shrunken log2 fold change” value came to 0.368. Next, RRIRRRPPRLPRPRPRPTILPRP: -0.0149; RRIRVRPPRLPRPRPRPPDKPRP: 0.265. As for RRIRTRPPRLPRPRPRPFFVPRP, the “shrunken log2 fold change” value was -0.142.

In the case of RRIRPRPPRLPRPRPRPWFRPRP, the “shrunken log2 fold change” value is -0.0017.

On to RRIRWRPPRLPRPRPRPIRCPRP, for which the “shrunken log2 fold change” value stood at 0.0257. For RRIRYRPPRLPRPRPRPPIPPRP, the “shrunken log2 fold change” value stood at 0.31. Next, RRIRIRPPRLPRPRPRPMCPPRP: -0.0137.

For the sequence RRIRDRPPRLPRPRPRPYYEPRP, the “shrunken log2 fold change” value was -0.226. For RRIRWRPPRLPRPRPRPPRIPRP the value was 0.245.

For RRIRRRPPRLPRPRPRPKINPRP, the “shrunken log2 fold change” value was -0.123.

RRIRSRPPRLPRPRPRPQMRPRP: the “shrunken log2 fold change” value worked out at 0.691. In the case of RRIRVRPPRLPRPRPRPQFMPRP, the “shrunken log2 fold change” value was -0.232.

In the case of RRIRNRPPRLPRPRPRPIVNPRP, the “shrunken log2 fold change” value amounted to 0.0189. RRIRVRPPRLPRPRPRPKIFPRP: the “shrunken log2 fold change” value was -0.00445. Take RRIRYRPPRLPRPRPRPCPYPRP: the “shrunken log2 fold change” value is -0.0107. Turning to RRIRNRPPRLPRPRPRPAITPRP, the “shrunken log2 fold change” value turned out to be 0.134.

In the case of RRIRARPPRLPRPRPRPIRPPRP, the “shrunken log2 fold change” value came out at 0.237. Next, RRIRNRPPRLPRPRPRPVTCPRP: -0.45; RRIRHRPPRLPRPRPRPCRSPRP: -0.0622. For RRIRVRPPRLPRPRPRPHHYPRP the value was 0.13; for RRIRTRPPRLPRPRPRPDPKPRP, 0.113. Next, RRIRPRPPRLPRPRPRPTKCPRP: -0.0849; RRIRQRPPRLPRPRPRPSKDPRP: -0.462; RRIRMRPPRLPRPRPRPYACPRP: -0.0298. RRIRRRPPRLPRPRPRPASKPRP: the “shrunken log2 fold change” value is 0.276. RRIRFRPPRLPRPRPRPQYWPRP: the “shrunken log2 fold change” value is -0.462. Regarding RRIRSRPPRLPRPRPRPHFQPRP, the “shrunken log2 fold change” value is -0.275. Take RRIRDRPPRLPRPRPRPRSKPRP: the “shrunken log2 fold change” value amounted to 0.401. For RRIRMRPPRLPRPRPRPTMLPRP the value was 0.0475. Next, RRIRMRPPRLPRPRPRPRRMPRP: 0.73; RRIRLRPPRLPRPRPRPAVPPRP: 0.3; RRIRSRPPRLPRPRPRPRMIPRP: -0.086. With RRIRQRPPRLPRPRPRPNWRPRP, the “shrunken log2 fold change” value came to 0.107. For RRIRLRPPRLPRPRPRPQPAPRP the value was 0.294.

With RRIRARPPRLPRPRPRPQYWPRP, the “shrunken log2 fold change” value is -0.167. For RRIRKRPPRLPRPRPRPGYRPRP the value was 0.129. For RRIRSRPPRLPRPRPRPMNKPRP the value was -0.6. RRIRCRPPRLPRPRPRPQPAPRP: the “shrunken log2 fold change” value is 0.632. For RRIRLRPPRLPRPRPRPAFCPRP the value was 0.289; for RRIRFRPPRLPRPRPRPNSRPRP, -0.0396; for RRIRMRPPRLPRPRPRPSADPRP, 3.21. For RRIRNRPPRLPRPRPRPALAPRP the value was 0.1; for RRIRKRPPRLPRPRPRPHEVPRP, -0.00968. Next, RRIRKRPPRLPRPRPRPMLGPRP: 0.00289; RRIRRRPPRLPRPRPRPYEAPRP: 0.125. In the case of RRIRKRPPRLPRPRPRPEKLPRP, the “shrunken log2 fold change” value was 0.103.

With RRIRPRPPRLPRPRPRPFHGPRP, the “shrunken log2 fold change” value is -0.252. For RRIRDRPPRLPRPRPRPQTVPRP the value was 0.0628.

For the sequence RRIRGRPPRLPRPRPRPKHDPRP, the “shrunken log2 fold change” value turned out to be 0.466. Regarding RRIRVRPPRLPRPRPRPWYEPRP, the “shrunken log2 fold change” value is -0.337. Next, RRIRPRPPRLPRPRPRPATAPRP: 0.315; RRIRERPPRLPRPRPRPTHYPRP: -0.312. Turning to RRIRHRPPRLPRPRPRPKMAPRP, the “shrunken log2 fold change” value was -0.0953.

Consider RRIRGRPPRLPRPRPRPIEEPRP, for which the “shrunken log2 fold change” value turned out to be 0.235. With RRIRERPPRLPRPRPRPTCGPRP, the “shrunken log2 fold change” value is 0.497. As for RRIRVRPPRLPRPRPRPTKMPRP, the “shrunken log2 fold change” value is 0.0488. For RRIRMRPPRLPRPRPRPIHIPRP the value was -0.221; for RRIRDRPPRLPRPRPRPKANPRP, 0.091. For RRIRHRPPRLPRPRPRPFQYPRP the value was -0.147. For RRIRERPPRLPRPRPRPKWLPRP the value was 0.226. Consider RRIRDRPPRLPRPRPRPHHNPRP, for which the “shrunken log2 fold change” value was -0.562. For RRIRFRPPRLPRPRPRPCCFPRP the value was -0.354; for RRIRHRPPRLPRPRPRPTDQPRP, -0.00155.

Consider RRIRKRPPRLPRPRPRPEENPRP, for which the “shrunken log2 fold change” value was -0.00213.

With RRIRNRPPRLPRPRPRPVIVPRP, the “shrunken log2 fold change” value is -0.112. On to RRIRMRPPRLPRPRPRPASCPRP, for which the “shrunken log2 fold change” value worked out at 0.629.

In the case of RRIRWRPPRLPRPRPRPAFEPRP, the “shrunken log2 fold change” value was 0.183. For RRIRSRPPRLPRPRPRPLDLPRP the value was -0.154; for RRIRSRPPRLPRPRPRPIPKPRP, 0.125. RRIRTRPPRLPRPRPRPRAPPRP: the “shrunken log2 fold change” value stood at 0.511. Next, RRIRDRPPRLPRPRPRPEYFPRP: 0.0472; RRIRDRPPRLPRPRPRPKEHPRP: 0.0267. On to RRIRERPPRLPRPRPRPCFHPRP, for which the “shrunken log2 fold change” value is -0.327. Next, RRIRTRPPRLPRPRPRPCKIPRP: -0.03; RRIRSRPPRLPRPRPRPTFWPRP: 0.536; RRIRGRPPRLPRPRPRPLDHPRP: 0.178. Next, RRIRYRPPRLPRPRPRPTCIPRP: -0.257; RRIRHRPPRLPRPRPRPECWPRP: 0.514; RRIRYRPPRLPRPRPRPMQAPRP: -0.0122.

On to RRIRNRPPRLPRPRPRPWFYPRP, for which the “shrunken log2 fold change” value was -0.154.

Take RRIRLRPPRLPRPRPRPPRTPRP: the “shrunken log2 fold change” value was determined as 0.591. Take RRIRKRPPRLPRPRPRPKHTPRP: the “shrunken log2 fold change” value stood at 0.281. Regarding RRIRNRPPRLPRPRPRPLVLPRP, the “shrunken log2 fold change” value was -0.171. Next, RRIRCRPPRLPRPRPRPRSRPRP: 0.299; RRIRCRPPRLPRPRPRPTCAPRP: 0.178; RRIRVRPPRLPRPRPRPWTQPRP: -0.219. Take RRIRNRPPRLPRPRPRPYYPPRP: the “shrunken log2 fold change” value was -0.141. Next, RRIRSRPPRLPRPRPRPFYVPRP: -0.546; RRIRPRPPRLPRPRPRPRKAPRP: 0.0787. Take RRIRSRPPRLPRPRPRPGPQPRP: the “shrunken log2 fold change” value was 0.885.

Regarding RRIRKRPPRLPRPRPRPVPHPRP, the “shrunken log2 fold change” value was 0.189.

As to RRIRKRPPRLPRPRPRPEAFPRP, the “shrunken log2 fold change” value was 0.434.

Consider RRIRLRPPRLPRPRPRPYINPRP, for which the “shrunken log2 fold change” value is -0.584.

Regarding RRIRLRPPRLPRPRPRPMYQPRP, the “shrunken log2 fold change” value is -0.29. Next, RRIRTRPPRLPRPRPRPEYRPRP: 0.0555. Next, RRIRLRPPRLPRPRPRPSYWPRP: -0.651. For RRIRMRPPRLPRPRPRPGIMPRP the value was 0.246. Turning to RRIRHRPPRLPRPRPRPGHDPRP, the “shrunken log2 fold change” value was found to be 0.0104.

For the sequence RRIRVRPPRLPRPRPRPVMWPRP, the “shrunken log2 fold change” value amounted to 0.365. For RRIRKRPPRLPRPRPRPQQGPRP the value was 0.23; for RRIRCRPPRLPRPRPRPTHFPRP, 0.526; for RRIRPRPPRLPRPRPRPVVDPRP, -0.107.
